Experimental data: the supplement of paper PMC9170038

Tested on: MS2 coat protein
Assay: apparent KD of MS2 coat protein; designed switch direction (-1 OFF switch, 1 ON switch): 1; higher = weaker reporter binding
How it was run: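 The apparent KD reported per design is the median over clusters of curve fits to normalised cluster fluorescence. The RNA switches were transcribed on Illumina chips by stalled E. coli RNA polymerase. SNAP-549-labelled MS2 coat protein was titrated from 0.7 or 1.5 nM, doubling up to 3 µM, in Tris-HCl pH 7.5 buffer containing KCl, MgCl2, BSA, DTT, tRNA and Tween-20, with no input, 200 uM small-molecule ligand, or an oligonucleotide input.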

[1] = input ligand: microRNA oligo, concentration not stated
[2] = Eterna round: R95, input ligand: FMN 200 uM
[3] = Eterna round: R95, input ligand: microRNA oligo, concentration not stated
[4] = Eterna round: R95, input ligand: none

| Sequence | apparent KD of MS2 coat protein (input ligand: FMN 200 uM) [nM] | apparent KD of MS2 coat protein [1] [nM] | apparent KD of MS2 coat protein (input ligand: none) [nM] | apparent KD of MS2 coat protein [2] [nM] | apparent KD of MS2 coat protein [3] [nM] | apparent KD of MS2 coat protein [4] [nM] |
| --- | --- | --- | --- | --- | --- | --- |
| GGCGAAGGAGAAGGAUAUAUCUUGGACAUAUAGAUGCACAUGAGGAUCACCCAUGUCAUCAUGGGAUAGAAGGUCUGCUUCACC [Eternabot solution 33] (Eterna round: R96, puzzle: Same State NG 2) | 13.2 | 10.3 | 14.2 | – | – | – |
| GGCGGAUCCACAUGAGGAUCACCCAUGUAGCGGAGACGCAAUGAGGAUAUCGAUGGGUUUCCCGUCGAGAAGGCAUAAACCGCC [JL SSNG3 3.93 mod 2] (Eterna round: R96, puzzle: Same State NG 3) | 17.8 | 14.9 | 16 | – | – | – |
| GGCGGCCUGGGAGGAUAUCGGGCCCUUUGGGCCCGAGAAGGUCCGGAGCCUCUGACAUGAGGAUCACCCAUGUAGGCUGCUGCC [first try] (Eterna round: R96, puzzle: Same State NG 1) | 45.4 | 186 | 154 | – | – | – |
| GGCGUAUAAACAUGAGGAUCACCCAUGUAGCGGAGACGCAAUGAGGAUAUCGAUGGGUUUCCCGUCGAGAAGGCGUGGGUCGCC [JL SSNG3 3.94] (Eterna round: R96, puzzle: Same State NG 3) | 20.6 | 20.6 | 29 | – | – | – |
| GGCUAUCGCGUACGAUAGCUGAAGCAUGUACAUGAGGAUCACCCAUGUCAUGUACAAGCUUUUUGCUCGUCUUAUUG [JL-shm-2.32 JL mod] (puzzle: Sensor for hsa-mir-208a) | – | – | – | 243 | 13.9 | 348 |
| GGCUAUCGCGUACGAUAGCUUAAGCGUGUACAUGAGGAUCACCCAUGUCAUGUACAAGCUUUUUGCUCGUCUUAUUG [JL-shm-2.34 JL mod] (puzzle: Sensor for hsa-mir-208a) | – | – | – | 195 | 19.4 | 493 |
| GGGAGAGACGGAGGAUAUGGAGGGAGAUAGAGACUAGAAGGUUGGACAUGAGAAUCGAACAUGAGGAUCACCCAUGUUGGGAGG [iteri-2] (Eterna round: R96, puzzle: Same State NG 1) | 61.5 | 33.7 | 56.7 | – | – | – |
| GGGAGAGGCGCAGGAUAUGGUGAGGAUCACCCACUAGAAGGGUGCACAUGAGAAUCGAACAUGAGGAUCACCCAUGUUCUGAGC (Eterna round: R96, puzzle: Same State NG 1) | 560 | 162 | 348 | – | – | – |
| GGGAGAGGUACAGGAUAUGGUGAGGAUCACCCACUAGAAGGGUGCACAUGUGAAUCGGACAUGAGGAUCACCCAUGUUUGGCGU (Eterna round: R96, puzzle: Same State NG 1) | 86.7 | 74.8 | 133 | – | – | – |
| GGGCCACAUGAGGAUCACCCAUGUGGAGCUAGUGCACGGUCACAGGAUAUCUCGUGGGCGUAUAGGGAGAAGGGUGAUUCAUUA [Eternabot solution 18] (Eterna round: R96, puzzle: Same State NG 3) | 47.2 | 51.3 | 52.3 | – | – | – |
| GGUAAGAAUUAAGGAUAUCGAGUACAUAUGUUUAACAUGAGGAUCACCCAUGUGGGUUGCGGUAUCGAGAAGGUAAAAUAAAAG [Mat - same State NG 2 - JL mod - D65] (Eterna round: R96, puzzle: Same State NG 2) | 53 | 29.2 | 36.2 | – | – | – |
| GGUAAGAAUUAAGGAUAUCGAGUACAUAUGUUUAACAUGAGGAUCACCCAUGUGGGUUGCGGUAUCGAGAAGGUAAAUUACAAG [Mat - same State NG 2 - JL mod - D62] (Eterna round: R96, puzzle: Same State NG 2) | 40.7 | 35.7 | 41.8 | – | – | – |
| GGUAGGUUACUACCAAACAACAUGAGGAUCACCCAUGUGUGGAAGGAUAUGGUACCUAUUUGGUACCAGAAGGUCCAAUUAAUU [Fiskers NG3ss - 4] (Eterna round: R96, puzzle: Same State NG 3) | 72.3 | 36.4 | 63.1 | – | – | – |
| GGUAGGUUACUACCAAACAUGAGGAUCACCCAUGUUAAUGGGAAGGAUAUGGUACCUAUUUGGUACCAGAAGGUCCAAUUAAUU [JL Fiskers NG3ss - 2 mod 4] (Eterna round: R96, puzzle: Same State NG 3) | 70.4 | 520 | 493 | – | – | – |
| GGUAGGUUACUACCAAACUACAUGAGGAUCACCCAUGUGUGGAAGGAUAUGGUACCUAUUUGGUACCAGAAGGUCCAAUUAAUU [Fiskers NG3ss - 5] (Eterna round: R96, puzzle: Same State NG 3) | 125 | 108 | 122 | – | – | – |
| GGUAGGUUACUACCAGACAUGAGGAUCACCCAUGUAAAUGGGAAGGAUAUGGUACCGUUUCGGUACCAGAAGGUCCUAAAUGAG [JL SSNG3 1.47] (Eterna round: R96, puzzle: Same State NG 3) | 301 | 644 | 1750 | – | – | – |
| GGUCAGACUCACAUGAGGAUCACCCAUGUACCGGAAACGGCACAGGAUAUCUGUCCGAAAAGGUCAGAGAAGGGUGUACUGACC [Fiskers NG3ss - 53] (Eterna round: R96, puzzle: Same State NG 3) | 277 | 22.9 | 82 | – | – | – |
| GGUCCAGCCUGAGCUGGACAAAAGCAUGUACAUGAGGAUCACCCAUGUCAUGUACAAGCUUUUUGCUCGUCAGAAAG [Mat - hsa-mir-208a - 98] (puzzle: Sensor for hsa-mir-208a) | – | – | – | 62.7 | 16.9 | 89.8 |
| GGUCCAGCCUGAGCUGGACAAAAGCAUGUACAUGAGGAUCACCCAUGUCAUGUACAAGCUUUUUGCUCGUCAUAAUU [Mat - hsa-mir-208a - 100] (puzzle: Sensor for hsa-mir-208a) | – | – | – | 495 | 16 | 489 |
| GGUCCAGCCUGAGCUGGACAAAAGCAUGUACAUGAGGAUCACCCAUGUCAUGUACAGGCUUUUUGCUCGUCUUAAAA [JL mod - D87 - 7] (puzzle: Sensor for hsa-mir-208a) | – | – | – | 622 | 16.1 | 825 |
| GGUCCAGCCUGAGCUGGACAAAAGCAUGUACAUGAGGAUCACCCAUGUCAUGUGCAAGCUUUUUGCUCGUCUUAAAA [JL mod - D87 - 4] (puzzle: Sensor for hsa-mir-208a) | – | – | – | 67.3 | 11 | 73.4 |
| GGUCCAGCCUGAGCUGGACAAAAGCAUGUACAUGAGGAUCACCCAUGUUCAUGUACAAGCUUUUUGCUCGUCUUAGA [salish99_208a_r3_068] (puzzle: Sensor for hsa-mir-208a) | – | – | – | 629 | 15.5 | 747 |
| GGUCCAGCCUGAGCUGGACAAAAGCAUGUACAUGAGGAUCACCCAUGUUCAUGUACAAGCUUUUUGCUCGUCUUAGU [salish99_208a_r3_069] (puzzle: Sensor for hsa-mir-208a) | – | – | – | 536 | 16.3 | 730 |
| GGUCCAGCCUGAGCUGGACGAUAGUAUGUACAUGAGGAUCACCCAUGUCAUGUAUAAGUAUUUUGUUUGUCUUGAAA [Sensorship 3 - Jieux - Sensor for hsa-mir-208a] (puzzle: Sensor for hsa-mir-208a) | – | – | – | 22.1 | 14.7 | 19.3 |
| GGUCCAGCCUGAGCUGGACUACAGCAUGUACAUGAGGAUCACCCAUGUCAUGUACAAGUAUGUUGUUUGUCUUAAAA [Sensorship 7 - Jieux - Sensor for hsa-mir-208a] (puzzle: Sensor for hsa-mir-208a) | – | – | – | 80.8 | 37.5 | 108 |
| GGUCCAGCCUGAGCUGGACUACAGCAUGUACAUGAGGAUCACCCAUGUCAUGUACAUGCUUUUUGUUUGUCUUAAAA [Sensorship 10 - Jieux - Sensor for hsa-mir-208a] (puzzle: Sensor for hsa-mir-208a) | – | – | – | 20.2 | 38.8 | 24.6 |
| GGUCCAUCAUGAGGAUAUGGCACCUUAUUGGUGCCAGAAGGCAUGUAAAUUAUAAUAAAUACAUGAGGAUCACCCAUGUGGACC [Eli NG1ss - 98] (Eterna round: R96, puzzle: Same State NG 1) | 1230 | 80.2 | 407 | – | – | – |
